# Measurements published in the supplement of paper PMC10567573.
# B1: TBX5 (parent)
# chain: YQNHKITQLKIENNPFAKGFRGSD
# Variants of: B1
# Test: protein stability index of a GFP-peptide fusion (GPS, HEK-293T) (PSI 1-6); higher = more stable
# Conditions: c terminus: a fixed tail appended
# 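Note: lentivirally expressed fusions sorted by FACS into six bins by GFP to DsRed ratio, PSI derived from sequencing read proportions per bin multiplied by bin number.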
row,Variant,protein stability index
1,YQNHKITQLKRENNPFAKGFRGSD [I11R],2.71
2,YQNHKITQLKSENNPFAKGFRGSD [I11S],2.96
3,YQNHKITQLKTENNPFAKGFRGSD [I11T],2.71
4,YQNHKITQLKVENNPFAKGFRGSD [I11V],2.58
5,YQNHKITQLKWENNPFAKGFRGSD [I11W],2.34
6,YQNHKITQLKYENNPFAKGFRGSD [I11Y],2.83
7,YQNHKITQLKIANNPFAKGFRGSD [E12A],2.32
8,YQNHKITQLKICNNPFAKGFRGSD [E12C],1.73
9,YQNHKITQLKIDNNPFAKGFRGSD [E12D],2.94
10,YQNHKITQLKIFNNPFAKGFRGSD [E12F],1.7
11,YQNHKITQLKIGNNPFAKGFRGSD [E12G],2.01
12,YQNHKITQLKIHNNPFAKGFRGSD [E12H],2.3
13,YQNHKITQLKIINNPFAKGFRGSD [E12I],1.81
14,YQNHKITQLKIKNNPFAKGFRGSD [E12K],1.84
15,YQNHKITQLKILNNPFAKGFRGSD [E12L],2.17
16,YQNHKITQLKIMNNPFAKGFRGSD [E12M],2.35
17,YQNHKITQLKINNNPFAKGFRGSD [E12N],2.51
18,YQNHKITQLKIPNNPFAKGFRGSD [E12P],2.63
19,YQNHKITQLKIQNNPFAKGFRGSD [E12Q],2.22
20,YQNHKITQLKIRNNPFAKGFRGSD [E12R],1.98
21,YQNHKITQLKISNNPFAKGFRGSD [E12S],2.11
22,YQNHKITQLKITNNPFAKGFRGSD [E12T],2.75
23,YQNHKITQLKIVNNPFAKGFRGSD [E12V],1.91
24,YQNHKITQLKIWNNPFAKGFRGSD [E12W],1.49

row,Variant,protein stability index
1,YQNHKITQLKIYNNPFAKGFRGSD [E12Y],1.69
2,YQNHKITQLKIEANPFAKGFRGSD [N13A],2.17
3,YQNHKITQLKIECNPFAKGFRGSD [N13C],2.31
4,YQNHKITQLKIEDNPFAKGFRGSD [N13D],2.48
5,YQNHKITQLKIEENPFAKGFRGSD [N13E],2.36
6,YQNHKITQLKIEFNPFAKGFRGSD [N13F],1.94
7,YQNHKITQLKIEGNPFAKGFRGSD [N13G],1.81
8,YQNHKITQLKIEHNPFAKGFRGSD [N13H],2.15
9,YQNHKITQLKIEINPFAKGFRGSD [N13I],1.51
10,YQNHKITQLKIEKNPFAKGFRGSD [N13K],2.34
11,YQNHKITQLKIELNPFAKGFRGSD [N13L],1.67
12,YQNHKITQLKIEMNPFAKGFRGSD [N13M],2.29
13,YQNHKITQLKIEPNPFAKGFRGSD [N13P],2.25
14,YQNHKITQLKIEQNPFAKGFRGSD [N13Q],2.55
15,YQNHKITQLKIERNPFAKGFRGSD [N13R],2.46
16,YQNHKITQLKIESNPFAKGFRGSD [N13S],2.37
17,YQNHKITQLKIETNPFAKGFRGSD [N13T],2.25
18,YQNHKITQLKIEVNPFAKGFRGSD [N13V],1.81
19,YQNHKITQLKIEWNPFAKGFRGSD [N13W],2.09
20,YQNHKITQLKIEYNPFAKGFRGSD [N13Y],1.77
21,YQNHKITQLKIENAPFAKGFRGSD [N14A],2.61
22,YQNHKITQLKIENCPFAKGFRGSD [N14C],1.58
23,YQNHKITQLKIENDPFAKGFRGSD [N14D],2.84
24,YQNHKITQLKIENEPFAKGFRGSD [N14E],2.95

row,Variant,protein stability index
1,YQNHKITQLKIENFPFAKGFRGSD [N14F],2.34
2,YQNHKITQLKIENGPFAKGFRGSD [N14G],2.46
3,YQNHKITQLKIENHPFAKGFRGSD [N14H],2.36
4,YQNHKITQLKIENIPFAKGFRGSD [N14I],2.41
5,YQNHKITQLKIENKPFAKGFRGSD [N14K],2.75
6,YQNHKITQLKIENLPFAKGFRGSD [N14L],2.52
7,YQNHKITQLKIENMPFAKGFRGSD [N14M],2.05
8,YQNHKITQLKIENPPFAKGFRGSD [N14P],2.52
9,YQNHKITQLKIENQPFAKGFRGSD [N14Q],2.94
10,YQNHKITQLKIENRPFAKGFRGSD [N14R],2.58
11,YQNHKITQLKIENSPFAKGFRGSD [N14S],2.16
12,YQNHKITQLKIENTPFAKGFRGSD [N14T],2.61
13,YQNHKITQLKIENVPFAKGFRGSD [N14V],2.27
14,YQNHKITQLKIENWPFAKGFRGSD [N14W],1.59
15,YQNHKITQLKIENYPFAKGFRGSD [N14Y],1.89
16,YQNHKITQLKIENNAFAKGFRGSD [P15A],2.52
17,YQNHKITQLKIENNCFAKGFRGSD [P15C],2.34
18,YQNHKITQLKIENNDFAKGFRGSD [P15D],3.34
19,YQNHKITQLKIENNEFAKGFRGSD [P15E],2.69
20,YQNHKITQLKIENNFFAKGFRGSD [P15F],1.96
21,YQNHKITQLKIENNGFAKGFRGSD [P15G],2.37
22,YQNHKITQLKIENNHFAKGFRGSD [P15H],2.35
23,YQNHKITQLKIENNIFAKGFRGSD [P15I],2.04
24,YQNHKITQLKIENNKFAKGFRGSD [P15K],2.33

row,Variant,protein stability index
1,YQNHKITQLKIENNLFAKGFRGSD [P15L],2.08
2,YQNHKITQLKIENNMFAKGFRGSD [P15M],2.65
3,YQNHKITQLKIENNNFAKGFRGSD [P15N],2.7
4,YQNHKITQLKIENNQFAKGFRGSD [P15Q],2.32
5,YQNHKITQLKIENNRFAKGFRGSD [P15R],2.35
6,YQNHKITQLKIENNSFAKGFRGSD [P15S],2.7
7,YQNHKITQLKIENNTFAKGFRGSD [P15T],2.82
8,YQNHKITQLKIENNVFAKGFRGSD [P15V],2.38
9,YQNHKITQLKIENNWFAKGFRGSD [P15W],1.87
10,YQNHKITQLKIENNYFAKGFRGSD [P15Y],2.34
11,YQNHKITQLKIENNPAAKGFRGSD [F16A],3.12
12,YQNHKITQLKIENNPCAKGFRGSD [F16C],3.17
13,YQNHKITQLKIENNPDAKGFRGSD [F16D],3.52
14,YQNHKITQLKIENNPEAKGFRGSD [F16E],3.64
15,YQNHKITQLKIENNPGAKGFRGSD [F16G],2.83
16,YQNHKITQLKIENNPHAKGFRGSD [F16H],3.54
17,YQNHKITQLKIENNPIAKGFRGSD [F16I],3
18,YQNHKITQLKIENNPKAKGFRGSD [F16K],3.31
19,YQNHKITQLKIENNPLAKGFRGSD [F16L],2.51
20,YQNHKITQLKIENNPMAKGFRGSD [F16M],2.98
21,YQNHKITQLKIENNPNAKGFRGSD [F16N],3.48
22,YQNHKITQLKIENNPPAKGFRGSD [F16P],3.93
